Measured values taken from article PMC10263302.

Molecular target: Complex IV (cytochrome c oxidase complex) of T. gondii (Toxoplasma gondii | Toxoplasma gondii (endogenous in the parasites))
Test: native gel or EMSA

Substance	reduction of the abundance of the complex against the cWT-containing complex (no ATc) [%]
cFLAG-TgApiCox13^H49Q (natural protein)	75
cFLAG-TgApiCox13^H85Q (natural protein)	45
